# Laboratory results: PMC9975281, “Enolpyruvate transferase MurAA^A149E, identified during adaptation of Enterococcus faecium to daptomycin, increases stability of MurAA–MurG interaction” (The Journal of Biological Chemistry, 2023)
# Tests used:
# C=C(OP(=O)(O)O)C(=O)O [1] = experiment: purified protein; conditions: covalently bound within the active site at Cys119
# MurAA [2] = target: T1, MurAA (Enterococcus faecium, UniProt A0A133CTP6); experiment: X-ray crystal structure ([…] Å), co-purified ligand, weak/partial density; assay type: binding
# T1 construct: gene murA; full-length
# [3] = target: Enterococcus faecium MurG (Enterococcus faecium) (UniProt Q3Y2H8); experiment: MST; 50 nM His-MurG labelled with RED-tris-NTA, serial dilution of MurAA^WT (402 uM to 12.3 nM) or MurAA^A149E (69.9 uM to 2.13 nM); 20 mM Hepes pH 7.5, 150 mM NaCl, 0.05% Tween; Monolith NT.115; triplicate
# MurAA^A149E = target: T2, MurAA^A149E (Enterococcus faecium, UniProt A0A133CTP6, A149E); experiment: microscale thermophoresis in the presence of UDP-GlcNAc; assay type: binding
# T2 construct: gene murA; full-length
# MurAA [4] = target: T1, MurAA; experiment: ([…] Å); MST in the presence of UDP-GlcNAc; assay type: binding
# C=C(OP(=O)(O)O)C(=O)O [5] = experiment: steady-state kinetics (Km), EnzChek phosphate assay; assay type: biochemical, Enterococcus faecium
molecule,measurement,setting,value
MurAA (Enterococcus faecium),Km,C=C(OP(=O)(O)O)C(=O)O [1],6.35 ± 0.88 µM
same,kcat,C=C(OP(=O)(O)O)C(=O)O [1],1.81 ± 0.06 s⁻¹
CC(=O)N[C@H]1[C@@H](OP(=O)(O)OP(=O)(O)OC[C@H]2O[C@@H](n3ccc(=O)[nH]c3=O)[C@H](O)[C@@H]2O)O[C@H](CO)[C@@H](O)[C@@H]1O[C@H](C)C(=O)O [UDP-MurNAc],"X-ray crystal structure (2.65 Å), co-purified ligand, weak/partial density",MurAA [2],Cys119-PEP adduct and UDP–MurNAc at the interface of two domains in E. faecium MurAA
"Enterococcus faecium MurAA, wildtype (UDP-N-acetylglucosamine enolpyruvate transferase) (enzyme)",Kd,[3],27700 nM
"C[C@@H]1O[C@@H]1P(=O)(O)O [FOS, fosfomycin]",Kd,MurAA^A149E,470 ± 60 nM
same,Kd,MurAA [4],1870 ± 670 nM
MurAA^A149E (Enterococcus faecium; A149E),Km,C=C(OP(=O)(O)O)C(=O)O [5],7.26 ± 1.05 µM
same,kcat,C=C(OP(=O)(O)O)C(=O)O [5],1.04 ± 0.04 s⁻¹
Enterococcus faecium MurAA^A149E (enzyme),Kd,[3],1720 nM
